Data on one molecule can be found in patent US20040126819A1 (LICENTIA, published 2004).

In assay [1] the target is 300 kD GDNF receptor subunit of mouse cell lines (MN-1, TM4, SK-N-SH as printed). As to the kind of experiment: displacement of 125I-GDNF by cold GDNF on MN-1 cells, cross-linking, SDS-PAGE, bands counted. As to the method:
(§1) Plated cells were incubated with 10 ng/ml […] at 4° C. in binding buffer as described above. Ligand/receptor complexes were chemically cross-linked for thirty minutes at room temperature using either disuccinimidyl suberate (DSS) or 1-Ethyl-3(-3-dimethylaminopropyl)-carbodiimide hydrochloride (EDAC) (Pierce Chemical, Rockland, Ill.). Following quenching of the cross-linking reactions, cells were washed twice with 10 mM Tris/HCl buffered saline, 2 mM EDTA, 10% glycerol, 1% NP40, 1% Triton x-100, 10 μg/ml leupeptin, 10 μg/ml antipain, 50 μg/ml aprotinin, 100 μg/ml benzamidine hydrochloride, 10 μg/ml pepstatin and 1 mM PMSF(proteinase inhibitors from Sigma). Cleared lysates were boiled for 5 min in SDS/β-mercaptoethanol buffer, fractionated by SDS/PAGE on 4-20% gradient electrophoresis gels, and visualized by autoradiography. […] These samples were fractionated by gradient SDS/PAGE, gels were then dried and specific bands excised according to molecular weights determined from autoradiograms, and count in a gamma counter. […]
(§2) In order to dissect the individual constituent affinities of GDNF receptor subunits, displacement binding assays were performed, followed by cross-linking and SDS-PAGE. Receptor-ligand complexes were visualized by autoradiography, cut out from the gel and counted in a gamma counter.
In general terms: In a radioligand displacement assay an active substance lowers the binding of a labelled ligand.

The target in assay [2] is T1, 135 kD GDNF receptor subunit of rat cell lines.
T1 construct: On C6, L6, RN33B and RN46A cells
As to the kind of experiment: displacement of 125I-GDNF by cold GDNF on RN33B cells, cross-linking, SDS-PAGE, bands counted. As to the method:
as §1, §2

The target of assay [3] is T2, 300 kD GDNF receptor subunit of rat cell lines.
T2 construct: On C6, L6, RN33B, RN46A and ST15A cells; also called large molecular weight band; high molecular weight component
The assay is described as above. As to the method: as §1, §2

Assay [4] has as its target T3, 55 kD GDNF receptor subunit of rat cell lines (confirmed to be GDNFR-α) (rat, UniProt Q62997 25-430).
T3 construct: whole, on cells; also called 50-55 kD receptor; 70 kD complex (with GDNF) in RN33B cells
T3 sequence (looked up): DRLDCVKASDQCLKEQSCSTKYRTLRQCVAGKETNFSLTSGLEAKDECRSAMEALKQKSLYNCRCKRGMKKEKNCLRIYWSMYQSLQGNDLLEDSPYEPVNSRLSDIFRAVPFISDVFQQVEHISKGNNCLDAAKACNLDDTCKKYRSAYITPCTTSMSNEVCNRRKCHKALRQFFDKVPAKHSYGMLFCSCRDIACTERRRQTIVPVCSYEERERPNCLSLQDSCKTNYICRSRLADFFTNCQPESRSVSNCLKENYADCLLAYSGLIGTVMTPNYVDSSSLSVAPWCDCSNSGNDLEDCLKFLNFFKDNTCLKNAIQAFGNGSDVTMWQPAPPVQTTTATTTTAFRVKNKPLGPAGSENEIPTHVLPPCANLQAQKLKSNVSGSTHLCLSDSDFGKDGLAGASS
As to the kind of experiment: displacement of 125I-GDNF by increasing cold GDNF on RN33B cells, cross-linking, SDS-PAGE, band of the subunit cut out and counted. As to the method: (§3) Plated cells were incubated with 10 ng/ml […] at 4° C. in binding buffer as described above. Ligand/receptor complexes were chemically cross-linked for thirty minutes at room temperature using either disuccinimidyl suberate (DSS) or 1-Ethyl-3(-3-dimethylaminopropyl)-carbodiimide hydrochloride (EDAC) (Pierce Chemical, Rockland, Ill.). Following quenching of the cross-linking reactions, cells were washed twice with 10 mM Tris/HCl buffered saline, 2 mM EDTA, 10% glycerol, 1% NP40, 1% Triton x-100, 10 μg/ml leupeptin, 10 μg/ml antipain, 50 μg/ml aprotinin, 100 μg/ml benzamidine hydrochloride, 10 μg/ml pepstatin and 1 mM PMSF(proteinase inhibitors from Sigma). Cleared lysates were boiled for 5 min in SDS/β-mercaptoethanol buffer, fractionated by SDS/PAGE on 4-20% gradient electrophoresis gels, and visualized by autoradiography. Molecular weights indicated were obtained by subtracting the weight of a GDNF ligand monomer, e.g., 25-30 kD, more preferably […], from the estimated molecular weights of cross-linked complexes visualized by SDS/PAGE. For affinity measurements of cross-linked complexes, cells were incubated on plates as above in the presence of increasing amounts of unlabeled GDNF. These samples were fractionated by gradient SDS/PAGE, gels were then dried and specific bands excised according to molecular weights determined from autoradiograms, and count in a gamma counter. […] Immunocomplexes were collected with Protein A-Sepharose (Pharmacia, Sweden), washed in lysis buffer and boiled for 5 minutes before SDS/PAGE and autoradiography as above.
as §2

For assay [5], the target named is T4, 70 kD GDNF receptor subunit of rat cell lines (designated GDNFR-β) (rat, UniProt O35977 22-444).
T4 construct: whole, on cells; also called 65-70 kD receptor; 100 kD complex (with GDNF) in RN33B cells
T4 sequence: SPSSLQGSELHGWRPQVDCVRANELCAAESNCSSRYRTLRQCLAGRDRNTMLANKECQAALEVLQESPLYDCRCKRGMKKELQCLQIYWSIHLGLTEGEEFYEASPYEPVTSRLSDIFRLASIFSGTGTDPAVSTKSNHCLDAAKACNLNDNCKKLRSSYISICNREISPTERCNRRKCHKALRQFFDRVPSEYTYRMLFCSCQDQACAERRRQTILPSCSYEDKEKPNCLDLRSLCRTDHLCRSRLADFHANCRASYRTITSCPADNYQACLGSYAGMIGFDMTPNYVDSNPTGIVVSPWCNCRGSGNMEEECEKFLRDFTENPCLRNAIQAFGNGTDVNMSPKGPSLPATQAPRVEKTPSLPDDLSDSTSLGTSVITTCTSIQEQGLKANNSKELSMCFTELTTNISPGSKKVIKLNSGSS
Described as above. As to the method: as §3, §2

Assay [6] concerns the target T1, 135 kD GDNF receptor subunit of rat …. Described as above. As to the method: as §3, §2
The target of assay [7] is T2, 300 kD GDNF receptor subunit of rat …. The assay is described as above. As to the method:
as §3, §2

What is called Kd is the constant that tells how readily two partners part at equilibrium.

B1: recombinant rat GDNF produced in Sf21 insect cells using a baculovirus expression system (ligand, UniProt Q07731 78-211, looked up)
chain: SPDKQAAALPRRERNRQAAAASPENSRGKGRRGQRGKNRGCVLTAIHLNVTDLGLGYETKEELIFRYCSGSCEAAETMYDKILKNLSRSRRLTSDKVGQACCRPVAFDDDLSFLDDSLVYHILRKHSAKRCGCI
modifications: labeled with Na-^125I by the chloramine-T method where used as tracer
notes: mature; also called glial cell line-derived neurotrophic factor
For B1, the Kd in assay [1], in assay [2] and in assay [3] was roughly 200 pM each time. In addition, the “IC50 (read off the curve)” value in assay [4] was roughly 200 pM; in assay [5] it was roughly 200 pM; in assay [6] it was roughly 200 pM; in assay [7], roughly 100 pM.
